# Measured values taken from PMC8373988 (2021).
# Where a chain is given by its changes, count along the chain named. Names and notes keep the numbering of the source.
# B1: FICD^H363A (residues 104–445), dimeric, catalytically inactive [human] / AMPylated biotinylated-AviTag-haBiP^T229A-V461F (residues 27–635) [modified: AMP covalently attached to Thr518 (Thr518-AMP); biotin on the N-terminal Avi-tag; AMP … (parent complex)
# chain 1: LEARAALNQALEMKRQGKREKAQKLFMHALKMDPDFVDALTEFGIFSEEDKDIIQADYLYTRALTISPYHEKALVNRDRTLPLVEEIDQRYFSIIDSKVKKVMSIPKGNSALRRVMEETYYHHIYHTVAIEGNTLTLSEIRHILETRYAVPGKSLEEQNEVIGMHAAMKYINTTLVSRIGSVTISDVLEIHRRVLGYVDPVEAGRFRTTQVLVGHHIPPHPQDVEKQMQEFVQWLNSEEAMNLHPVEFAALAHYKLVYIAPFIDGNGRTSRLLMNLILMQAGYPPITIRKEQRSDYYHVLEAANEGDVRPFIRFIAKCTETTLDTLLFATTEYSVALPEAQP
# chain 2: not shown
# B2: FICD^L258D-H363A (residues 104–445), monomeric, catalytically inactive [human] / AMPylated biotinylated-AviTag-haBiP^T229A-V461F (residues 27–635) [modified: AMP covalently attached to Thr518 (Thr518-AMP); biotin on the N-terminal Avi-tag; … (parent complex)
# chain 1: B1 chain 1 with L155D
# chain 2: not shown
# Variants of: B1
# Assay: BLI; 50 nM FICD analyte; immobilised BiP-AMP activated in 2 mM ATP; read at end of apo association (600 s); parent: 0.74; read off a plot
row,response [nm],Variant
1,~0.66,chain 1 H28A
2,~0.73,chain 1 E2R
3,~0.43,chain 1 K21E
4,~0.03,"chain 1 K21E, chain 1 H28A"

# Variants of: B1
# Assay: BLI; 50 nM FICD analyte, oxidised (TPRox); immobilised BiP activated in 2 mM ATP; read at end of apo association (600 s); parent: 0.24; read off a plot
row,response [nm],Variant
1,~0.31,"chain 1 D57C, chain 1 T80C, chain 1 C318S"

# Variants of: B1
# Assay: BLI; 50 nM FICD analyte, oxidised (TPRox); immobilised BiP-AMP activated in 2 mM ATP; read at end of apo association (600 s); parent: 0.74; read off a plot
row,response [nm],Variant
1,~0.79,"chain 1 D57C, chain 1 T80C, chain 1 C318S"

# Variants of: B1
# Assay: BLI; 50 nM FICD analyte; immobilised BiP activated in 2 mM ATP; read at end of apo association (600 s); parent: 0.2; read off a plot
row,response [nm],Variant
1,~0.75,chain 1 L155D

# Variants of: B1
# Assay: BLI; 50 nM FICD analyte; immobilised BiP-AMP activated in 2 mM ATP; read at end of apo association (600 s); parent: 0.92; read off a plot
row,response [nm],Variant
1,~0.75,chain 1 L155D

# Variants of: B1
# Assay: BLI; 50 nM FICD analyte; immobilised BiP activated in 2 mM ATP; read at end of apo association (600 s); parent: 0.24; read off a plot
row,response [nm],Variant
1,~0.04,chain 1 E2R
2,~0.01,chain 1 K21E

# Variants of: B2
# Assay: BLI; 50 nM FICD analyte; immobilised BiP-AMP activated in 2 mM ATP; read at end of apo association (600 s); parent: 0.7; read off a plot
row,response [nm],Variant
1,~0.12,chain 1 E2R
2,~0.2,chain 1 H28A

# Variants of: B2
# Assay: BLI; 50 nM FICD analyte, oxidised (TPRox); immobilised BiP activated in 2 mM ATP; read at end of apo association (600 s); parent: 0.68; read off a plot
row,response [nm],Variant
1,~0.92,"chain 1 D57C, chain 1 T80C, chain 1 C318S"

# Variants of: B2
# Assay: BLI; 50 nM FICD analyte, oxidised (TPRox); immobilised BiP-AMP activated in 2 mM ATP; read at end of apo association (600 s); parent: 0.7; read off a plot
row,response [nm],Variant
1,~0.91,"chain 1 D57C, chain 1 T80C, chain 1 C318S"
